Assay results reported in the Immune Epitope Database (IEDB).
One block for each sequence: values may come before it.

Key:
HLA-A*02:02 = assay: IEDB peptide-MHC binding, purified MHC/competitive/radioactivity; filed as Kd, often an IC50 or EC50 that approximates it; ≥ and ≤ were set here for values at or beyond the usual limits of such assays
HLA-A*02:03 = assay: as above
HLA-A*02:06 = assay: as above
HLA-B*53:01 = assay: as above
HLA-A*02:01 [1] = assay: IEDB peptide-MHC binding, purified MHC/direct/fluorescence; filed as Kd, often an IC50 or EC50 that approximates it; ≥ and ≤ were set here for values at or beyond the usual limits of such assays
HLA-A*69:01 = assay: as above
HLA-A*02:01 [2] = assay: IEDB peptide-MHC binding, purified MHC/competitive/fluorescence; filed as Kd, often an IC50 or EC50 that approximates it; ≥ and ≤ were set here for values at or beyond the usual limits of such assays; settings: source organism: Vaccinia virus Copenhagen
HLA-B*07:02 = assay: IEDB peptide-MHC binding, purified MHC/direct/fluorescence; filed as Kd, often an IC50 or EC50 that approximates it; ≥ and ≤ were set here for values at or beyond the usual limits of such assays; settings: source organism: Candidatus Solibacter
HLA-B*51:01 = assay: IEDB peptide-MHC binding, purified MHC/competitive/radioactivity; filed as Kd, often an IC50 or EC50 that approximates it; ≥ and ≤ were set here for values at or beyond the usual limits of such assays
HLA-A*30:02 = assay: as above; settings: source organism: Dengue virus 1 Brazil/97-11/1997
HLA-B*15:01 = assay: IEDB peptide-MHC binding, purified MHC/direct/fluorescence; filed as Kd, often an IC50 or EC50 that approximates it; ≥ and ≤ were set here for values at or beyond the usual limits of such assays
HLA-B*58:01 = assay: as above; settings: source organism: Pseudomonas aeruginosa
HLA-A*03:01 = assay: as above; settings: source organism: Francisella tularensis subsp. holarctica LVS
HLA-A*11:01 = assay: as above; settings: source organism: Francisella tularensis subsp. holarctica LVS
HLA-B*40:01 = assay: as above; settings: source organism: Influenza A virus (A/RI/5-/1957(H2N2))
HLA-A*01:01 = assay: as above; settings: source organism: Amur virus
[3] = source organism: Vaccinia virus WR
[4] = source organism: Dengue virus 1 Brazil/97-11/1997
[5] = source organism: Mammarenavirus juninense
[6] = source organism: Burkholderia pseudomallei
[7] = source organism: Cryptosporidium parvum
[8] = source organism: Mammarenavirus guanaritoense
[9] = source organism: Pseudomonas aeruginosa
[10] = source organism: SARS coronavirus Tor2
[11] = source organism: Mammarenavirus whitewaterense
[12] = source organism: Vibrio vulnificus

Sequence: KLLYAAEMV
Kd (HLA-A*02:02; [3]): 57.6 nM | Kd (HLA-A*02:03; [3]): 54.3 nM | Kd (HLA-A*02:06; [3]): 17.9 nM

Sequence: FVEGLSGATW
Kd (HLA-B*53:01; [4]): 14.4 nM

Sequence: TSLGLLYTV
Kd (HLA-A*02:02; [5]): 933 nM | Kd (HLA-A*02:03; [5]): 405 nM | Kd (HLA-A*02:06; [5]): 4.17 nM

Sequence: YLSKEDRIIT
Kd (HLA-A*02:02; [3]): 1300 nM | Kd (HLA-A*02:03; [3]): 5570 nM | Kd (HLA-A*02:06; [3]): ≥ 49000 nM

Sequence: FIASAPQQL
Kd (HLA-A*02:02; [3]): 1.97 nM | Kd (HLA-A*02:03; [3]): 4.39 nM | Kd (HLA-A*02:06; [3]): 89.4 nM

Sequence: YTTMFGGVSW
Kd (HLA-B*53:01; source organism: Dengue virus 4 Philippines/H241/1956): 119 nM

Sequence: DAAVVFPPV
Kd (HLA-A*02:01 [1]; [6]): ≥ 20000 nM | Kd (HLA-A*69:01; [6]): 0.4 nM

Sequence: PPTAGILARW
Kd (HLA-B*53:01; [4]): 10300 nM

Sequence: ILLSCIHTT
Kd (HLA-A*02:01 [2]): 1.2 nM

Sequence: STKNILVTV
Kd (HLA-A*02:01 [1]; [7]): 416 nM | Kd (HLA-A*69:01; [7]): 60.7 nM

Sequence: IASKINNNRI
Kd (HLA-A*02:02; [3]): 732 nM | Kd (HLA-A*02:03; [3]): 18500 nM | Kd (HLA-A*02:06; [3]): 9420 nM

Kd (HLA-B*07:02): 3.4 nM
Sequence: RRRPVTRPL

Sequence: FKLTYQNKVV
Kd (HLA-B*51:01; source organism: Dengue virus 2 Jamaica/1409/1983): ≥ 60000 nM

Sequence: LVIRNEVNDT
Kd (HLA-A*02:02; [3]): 5500 nM | Kd (HLA-A*02:03; [3]): 15200 nM | Kd (HLA-A*02:06; [3]): 2170 nM

Sequence: FSLGILCVSI
Kd (HLA-A*02:06; [4]): 3.63 nM | Kd (HLA-B*51:01; [4]): ≥ 39500 nM

Sequence: FMNDLQVSR
Kd (HLA-A*02:02; [8]): 249 nM | Kd (HLA-A*02:03; [8]): 914 nM | Kd (HLA-A*02:06; [8]): ≥ 33600 nM

Sequence: RNQNKEGDQY
Kd (HLA-A*30:02): 120 nM

Sequence: VAWRTATLI
Kd (HLA-B*51:01; source organism: Dengue virus 3 Martinique/1243/1999): 137 nM

Sequence: CVDHPFIYVI
Kd (HLA-A*02:02; [3]): 964 nM | Kd (HLA-A*02:03; [3]): 10800 nM | Kd (HLA-A*02:06; [3]): 1610 nM

Sequence: KLLNMRDLIV
Kd (HLA-A*02:02; [3]): 194 nM | Kd (HLA-A*02:03; [3]): 29.4 nM | Kd (HLA-A*02:06; [3]): 2.77 nM

Sequence: VIVVPVIDRL
Kd (HLA-A*02:02; [3]): 4570 nM | Kd (HLA-A*02:03; [3]): ≥ 59000 nM | Kd (HLA-A*02:06; [3]): 11100 nM

Sequence: KAMHDKKIDI
Kd (HLA-A*02:02; [3]): ≥ 70000 nM | Kd (HLA-A*02:03; [3]): ≥ 46200 nM | Kd (HLA-A*02:06; [3]): ≥ 26400 nM

Kd (HLA-A*02:01 [1]; [9]): 4130 nM | Kd (HLA-A*69:01; [9]): 18100 nM | Kd (HLA-B*15:01; [9]): 150 nM | Kd (HLA-B*58:01): 146 nM
Sequence: ILGRYLPEF

Sequence: ELAYYNSCML
Kd (HLA-A*02:02; [3]): 1870 nM | Kd (HLA-A*02:03; [3]): 151 nM | Kd (HLA-A*02:06; [3]): 3570 nM

Sequence: IIGHIGHHYI
Kd (HLA-A*02:02; [3]): 400 nM | Kd (HLA-A*02:03; [3]): 186 nM | Kd (HLA-A*02:06; [3]): 1350 nM

Sequence: KLYSYGIGY
Kd (HLA-A*03:01): 1.4 nM | Kd (HLA-A*11:01): 75.4 nM

Sequence: LTKDRKMLEL
Kd (HLA-A*02:02; [3]): 7700 nM | Kd (HLA-A*02:03; [3]): 133 nM | Kd (HLA-A*02:06; [3]): ≥ 20800 nM

Sequence: LEKTHNGKL
Kd (HLA-B*40:01): 124 nM

Sequence: MAFDISVNA
Kd (HLA-A*02:02; [3]): 191 nM | Kd (HLA-A*02:03; [3]): 15.1 nM | Kd (HLA-A*02:06; [3]): 13.2 nM

Sequence: DMICCDSRIV
Kd (HLA-A*02:02; [3]): 11300 nM | Kd (HLA-A*02:03; [3]): 6080 nM | Kd (HLA-A*02:06; [3]): 18900 nM

Sequence: YIILFILFFA
Kd (HLA-A*02:02; [3]): 263 nM | Kd (HLA-A*02:03; [3]): 674 nM | Kd (HLA-A*02:06; [3]): 1050 nM

Sequence: FLAFLLFLVL
Kd (HLA-A*02:02; [10]): 13.2 nM | Kd (HLA-A*02:03; [10]): 245 nM | Kd (HLA-A*02:06; [10]): 2000 nM

Sequence: ALVCYIVMPV
Kd (HLA-A*02:02; [10]): 1.2 nM | Kd (HLA-A*02:03; [10]): 4.4 nM | Kd (HLA-A*02:06; [10]): 2.92 nM

Sequence: PLHIVCSKT
Kd (HLA-A*02:02; [3]): 997 nM | Kd (HLA-A*02:03; [3]): 2150 nM | Kd (HLA-A*02:06; [3]): 3890 nM

Sequence: SALMTLDDL
Kd (HLA-A*02:02; [3]): 411 nM | Kd (HLA-A*02:03; [3]): 707 nM | Kd (HLA-A*02:06; [3]): 99.9 nM

Sequence: LINLVQYRIL
Kd (HLA-A*02:02; [3]): 2120 nM | Kd (HLA-A*02:03; [3]): 2250 nM | Kd (HLA-A*02:06; [3]): 15900 nM

Sequence: FSAVISGSV
Kd (HLA-A*02:02; [11]): 48.2 nM | Kd (HLA-A*02:03; [11]): 14100 nM | Kd (HLA-A*02:06; [11]): 161 nM

Sequence: HLAGFIHAC
Kd (HLA-A*02:01 [1]; [12]): 21.5 nM | Kd (HLA-B*15:01; [12]): 2280 nM

Sequence: VMFNGVTFST
Kd (HLA-A*02:02; [10]): 0.69 nM | Kd (HLA-A*02:03; [10]): 75.2 nM | Kd (HLA-A*02:06; [10]): 131 nM

Sequence: DVNSVQFSIL
Kd (HLA-A*02:02; [3]): 2270 nM | Kd (HLA-A*02:03; [3]): 1660 nM | Kd (HLA-A*02:06; [3]): 3400 nM

Sequence: ALVSDCAST
Kd (HLA-A*02:02; [3]): 701 nM | Kd (HLA-A*02:03; [3]): 31.1 nM | Kd (HLA-A*02:06; [3]): 311 nM

Sequence: TKLEGKIVQY
Kd (HLA-A*30:02): 7040 nM

Sequence: VQLPKRGVRV
Kd (HLA-A*02:02; [3]): ≥ 33700 nM | Kd (HLA-A*02:03; [3]): 2210 nM | Kd (HLA-A*02:06; [3]): 41.3 nM

Sequence: LTSSSKYTY
Kd (HLA-A*01:01): 33 nM
